{"source": "paper PMC12632272", "key": {"[1]": {"molecular_target": "T1, CRP (cAMP receptor protein) (Escherichia coli ATCC 25922) (UniProt P0ACJ8)", "T1 sequence": "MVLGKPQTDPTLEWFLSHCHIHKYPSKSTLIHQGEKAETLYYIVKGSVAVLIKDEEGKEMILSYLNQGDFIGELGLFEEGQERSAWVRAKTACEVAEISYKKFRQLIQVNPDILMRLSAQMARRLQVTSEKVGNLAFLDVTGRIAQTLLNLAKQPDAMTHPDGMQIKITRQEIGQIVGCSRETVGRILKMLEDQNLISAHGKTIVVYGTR", "test": "EMSA", "details": "EMSA: 20 mM Tris (pH not stated), 10 mM MgCl2, 0.1 mM EDTA, 100 mM KCl, 200 uM cAMP, room temperature 15 min; 5% gel, 0.3x TBE, 150 V, 20 C"}, "[2]": {"molecular_target": "T1, CRP (cAMP receptor protein) (Escherichia coli ATCC 25922)", "test": "competition", "details": "EMSA: 20 mM Tris (pH not stated), 10 mM MgCl2, 0.1 mM EDTA, 100 mM KCl, 200 uM cAMP, room temperature 15 min; 5% gel, 0.3x TBE, 150 V, 20 C"}}, "data": [{"sequence": "CGCCTAAGTTTGCCCGTAATAATTCCCCGTGCAGTACTATTGTTGCGACATAACAACATGAATTACATGGTAATAATAGATGTTTTCCTCTGCTGATTCCTGTAAAGATCATGACTCCATACGACATCATTTTTAATATTATACAGTTCAAAAAATCTACATGTGTCACAAATAATTTTACATTTGATAATGTATAGTTGTCACATGACAAGTTGATTATCATTCTGTGTAGACAAGGAGAACTGTTATGACGGAT (double strand) [P1/2 DHAP shunt promoter fragment]", "values": [{"measurement": "binding", "setting": "[1]", "value": "binds"}]}, {"sequence": "CGCCTAAGTTTGCCCGTAATAATTCCCCGTGCAGTACTATTGTTGCGACATAACAACATGAATTACATGGTAATAATAGATGTTTTCCTCTGCTGATTCCTGTAAAGATCATGACTCCATACGACATCATTTTTAATATTATACAGTTCAAAAAATCTACATGTGTCACAAATAATTTTACATTTGATAATGTATAGTTGTCACATGACAAGTTGATTATCATTCTGTGTAGACAAGGAGAACTGTTATGACGGAT (double strand) [P1/2 unlabeled competitor]", "values": [{"measurement": "binding", "setting": "[2]", "value": "binds"}]}]}
